Measurements reported in paper PMC12554370, “MdMAPK6-mediated phosphorylation of MdWRKY9 regulates apple fruit ripening through interaction with MdERF5L”.

Tests used:
[1] = molecular target: T1, MdERF5L (Malus domestica, UniProt A0A498JN73 1-332); experiment: EMSA; cold probe competes; LightShift Chemiluminescent EMSA kit (Thermo), per manufacturer's protocol; buffer, salt, pH and temperature not stated; settings: protein: recombinant; tags: GST (pGEX-4T-1); label: biotin (hot probe); blunt
[2] = molecular target: T1, MdERF5L; experiment: EMSA; mutations disrupted binding; LightShift Chemiluminescent EMSA kit (Thermo), per manufacturer's protocol; buffer, salt, pH and temperature not stated; settings: protein: recombinant; tags: GST (pGEX-4T-1); blunt
[3] = molecular target: MdWRKY9 (Malus domestica, UniProt D9ZJG3 1-520); experiment: EMSA; LightShift Chemiluminescent EMSA kit (Thermo), per manufacturer's protocol; buffer, salt, pH and temperature not stated; settings: protein: recombinant; tags: GST (pGEX-4T-1) or His (pET-32a); label: biotin (hot probe); blunt
Sequence of MdWRKY9 (D9ZJG3 entry or part of it): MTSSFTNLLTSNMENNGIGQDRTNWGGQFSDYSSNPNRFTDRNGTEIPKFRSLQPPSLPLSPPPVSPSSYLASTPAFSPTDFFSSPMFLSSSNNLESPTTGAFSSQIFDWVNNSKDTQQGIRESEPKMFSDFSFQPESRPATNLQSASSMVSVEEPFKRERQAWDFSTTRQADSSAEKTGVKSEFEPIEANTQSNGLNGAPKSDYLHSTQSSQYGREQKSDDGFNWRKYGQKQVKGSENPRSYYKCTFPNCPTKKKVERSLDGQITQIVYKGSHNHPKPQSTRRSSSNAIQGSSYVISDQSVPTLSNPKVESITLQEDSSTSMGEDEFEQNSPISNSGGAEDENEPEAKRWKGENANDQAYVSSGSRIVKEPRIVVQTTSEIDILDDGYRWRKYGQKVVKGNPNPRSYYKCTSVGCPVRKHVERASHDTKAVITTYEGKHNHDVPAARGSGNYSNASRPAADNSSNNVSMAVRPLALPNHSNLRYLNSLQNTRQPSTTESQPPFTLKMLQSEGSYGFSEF

T1 sequence (A0A498JN73 entry or part of it): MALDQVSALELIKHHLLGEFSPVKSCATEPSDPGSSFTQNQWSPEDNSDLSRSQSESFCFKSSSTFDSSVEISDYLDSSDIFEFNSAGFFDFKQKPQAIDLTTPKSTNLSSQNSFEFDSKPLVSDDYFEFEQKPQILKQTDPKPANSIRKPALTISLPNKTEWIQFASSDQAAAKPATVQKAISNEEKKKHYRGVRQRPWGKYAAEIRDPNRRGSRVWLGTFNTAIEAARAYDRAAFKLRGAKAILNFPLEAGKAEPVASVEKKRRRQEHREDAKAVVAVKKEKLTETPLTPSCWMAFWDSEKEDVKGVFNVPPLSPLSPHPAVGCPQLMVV

B1: MdACS1-DRE probe (dsDNA)
DNA 1: AAAATAGAGGAGAAAAATGGCCGACAAAATTTGTTGTGGCTACTA
DNA 2: TAGTAGCCACAACAAATTTTGTCGGCCATTTTTCTCCTCTATTTT
binding result [1]: binds

B2: MdACS1-DRE mutant probe (dsDNA)
DNA 1: AAAATAGAGGAGAAAAATGGTCTAGAAAATTTGTTGTGGCTACTA
DNA 2: TAGTAGCCACAACAAATTTTCTAGACCATTTTTCTCCTCTATTTT
binding result [2]: no binding

B3: MdERF5L-W-box probe (dsDNA)
DNA 1: AATTTGTATATCGTTTTCTGGGTCAATGATACGTTTTTTTATATTA
DNA 2: TAATATAAAAAAACGTATCATTGACCCAGAAAACGATATACAAATT
binding result [3]: binds
